Laboratory results reported in patent US11529390B2, “PCSK9 inhibitory polypolypeptides and methods of use” (INSTITUT DE CARDIOLOGIE DE MONTREAL, priority 2015, dated 2022).
Like-named read-outs stand apart in the source and are kept apart here.

Legend:
PCSK9-V5 = target: T1, PCSK9-V5 (Homo sapiens, UniProt Q8NBP7); test: Co-immunoprecipitation of GRP94 constructs with PCSK9-V5 in transfected HEK293 cells; format: binding
T1 construct: Full-length human V5-tagged PCSK9 and LDLR were subcloned into pIRES2-EGFP; expressed in transfected cells; host or cells: HEK293
T1 sequence (Q8NBP7 153-692): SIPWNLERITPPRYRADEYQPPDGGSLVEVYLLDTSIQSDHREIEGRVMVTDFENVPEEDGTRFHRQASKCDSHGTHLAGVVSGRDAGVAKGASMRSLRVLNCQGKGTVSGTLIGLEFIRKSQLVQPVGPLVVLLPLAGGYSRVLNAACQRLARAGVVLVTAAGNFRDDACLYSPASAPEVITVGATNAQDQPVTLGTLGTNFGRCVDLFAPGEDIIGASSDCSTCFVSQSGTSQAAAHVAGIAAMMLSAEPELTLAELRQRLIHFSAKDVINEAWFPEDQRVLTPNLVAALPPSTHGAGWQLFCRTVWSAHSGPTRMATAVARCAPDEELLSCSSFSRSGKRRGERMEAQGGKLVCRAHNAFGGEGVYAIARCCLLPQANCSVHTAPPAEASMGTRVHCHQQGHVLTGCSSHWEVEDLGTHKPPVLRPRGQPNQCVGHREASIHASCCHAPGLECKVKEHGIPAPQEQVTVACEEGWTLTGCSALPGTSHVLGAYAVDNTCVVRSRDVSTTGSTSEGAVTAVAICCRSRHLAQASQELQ
Method: FIG. 2: Mapping of the PCSK9-GRP94 interacting domain. (a-b) HEK293 cells were transfected without (−) or with (+) PCSK9-V5 or SEQ ID NO. 66, 64 or 65. A PCSK9 V5 epitope-tag fusion protein (PCSK9-V5) was immune-precipitated from cell lysates using mAb-V5 antibody (IP: V5) and immune-blotted as indicated. Total GRP94 (SEQ. ID. NO. 3) and PCSK9 (SEQ. ID. NO. 1) protein levels were analyzed by immune-blotting in cell lysates (input) and conditioned media. (c) Left panel; HEK293 cells were transfected without (−) or with (+) PCSK9-V5, SEQ. ID. NO. 66 or 46. PCSK9-V5 was immune-precipitated for cell lysates (IP: V5) and immune-blotted (IB) as indicated. Total GRP94 and PCSK9 protein levels were also analyzed by immune-blotting and herein used as a control (input). Right panel; GRP94 homodimer (gray and yellow) crystal structure was determined from PDB file #2O1V using MacPymol software. […] 6 in which critical residues for PCSK9 binding determined in (b) are indicated in blue for SEQ. ID. NO. 64 and red for SEQ. ID. NO. 65. Data are representative of at least three independent experiments.
For identification of novel PCSK9 interactors, HepG2 or Huh-7 cells (55 cm2) were washed three times in phosphate-buffered saline (PBS) and incubated with 1 mM dithiobis[succinimidylpropionate] (DSP; Cat. #22585, Thermo Scientific), a thiol-cleavable cross-linking reagent, for 30 min at room temperature and subsequently switch for 15 min into a stop solution (15 mM Tris, pH 7.5). Cells were then lysed in complete radio-immune precipitation assay (RIPA) buffer (50 mM Tris/HCl, pH 8.0, 1% (v/v) Nonidet P40, 0.5% sodium deoxycholate, 150 mM NaCl and 0.1% (v/v) sodium dodecyl sulfate (SDS)) supplemented with a complete protease inhibitor mixture (Cat. #11 697 498 001, Roche Applied Science), passed 25 times through a 22-gauge needle and centrifuged at 11,000 g for 15 min at 4° C. Supernatants were incubated and rotated overnight with pre-immune serum, rabbit anti-hPCSK9 (amino acids 31-454) (1:250; Dr. Nabil Seidah, Clinical Research Institute of Montreal) or mouse anti-V5-tag (1:500; Cat. #R96025, Life Technologies) together with 50 μl protein A/G PLUS-agarose (Cat. #sc-2003, Santa Cruz). Following overnight incubation, beads were washed six times in RIPA buffer and resuspended in 75 μl Laemmli sample buffer. Co-immunoprecipitated (Co-IP) proteins were separated by 8% SDS-polyacrylamide gel electrophoresis and visualized using the Pierce silver stain kit (Cat. #24600, Thermo Scientific) according the manufacturer's instructions. All other Co-IP experiments were performed as described without the cross-linking step and in SDS-deprived RIPA buffer. HA-tagged proteins and GRP94 were immunoprecipitated with mouse anti-HA-tag (1:500; Cat. #H3663, Sigma-Aldrich) or rat anti-Grp94 (9G10, 1:1000; Cat. #ADI-SPA-850, Enzo Life Sciences).
We next decided to map GRP94 domain(s) important for PCSK9 protein-protein interaction. The overall domain structure of GRP94 includes a signal polypeptide (amino acids; aa1-21) followed by a N-terminal enzymatic ATP-binding domain (aa22-651), client-binding domain (CBD; aa652-678), C-terminal dimerization domain (aa679-799) and a KDEL polypeptide sequence (aa800-803) allowing retention of GRP94 in the endoplasmic reticulum. (Dollins et al., 2007; Maki et al., 1990; Wu et al., 2012) Thus, we first generated cDNA constructs encoding secretable HA-tagged forms of human GRP94 lacking its C-terminal KDEL polypeptide (SEQ ID. NO. 66; FIG. 2). HEK293 cells were transfected without or with SEQ ID. NO. 66 in absence or presence of PCSK9-V5 (FIG. 2a). […] NO. 66 is well expressed (Input; IB: HA) and secreted into media and that SEQ ID. NO. […] It was reported that a 27 aa C-terminal hydrophobic loop structure within GRP94 client-binding domain (CBD, amino acids aa652-678; ^652[…], SEQ ID. NO. 4) was important for folding and interaction with Toll-like receptors and integrins. (Wu et al., 2012) Deletion or alanine-scan mutations in SEQ ID. […]

[1] = test system: LDLR degradation induced by overexpression of PCSK9; test: LDLR degradation after co-expression with PCSK9-V5 (intracellular pathway), immunoblot; format: cell-based, human
Method: FIG. 7: SEQ ID NO. 6 prevents PCSK9-induced LDLR degradation. (a) Left; Coomassie staining of purified recombinant SEQ ID NO. 6 and PCSK9 separated by SDS-PAGE is shown. Right; HepG2 cells were incubated in DMEM without or with 0, 25, 100 or 250 nM SEQ ID NO. 6 alone or in presence of recombinant PCSK9. (b) HepG2 cells were transfected without (−) or with PCSK9-V5 in absence (−) or presence SEQ ID NO. 66 or SEQ ID NO. 46. Total LDLR, PCSK9, SEQ ID NO. 66, SEQ ID NO. 46 and β-actin protein levels were analyzed by immunoblotting in cell lysates and conditioned media as indicated. Data are representative of at least three independent experiments.
We next tested whether SEQ ID. NO. 6 could alter the capacity of PCSK9 to induce LDLR degradation. HepG2 cells were incubated overnight with an increasing amount of recombinant SEQ ID. NO. 6 in absence or presence of exogenous PCSK9 (FIG. 7a). […] NO. […] Although that SEQ ID. NO. […] NO. […] (Poirier et al., 2009) As PCSK9 was also shown to induce LDLR degradation via an intracellular pathway, (Poirier et al., 2009) we evaluated to ability of SEQ ID. NO. 66 or SEQ ID. NO. 46 to neutralize PCSK9 in HepG2 cells following co-expression (FIG. 7b). Similar to the extracellular pathway (FIGS. 5b and 7a), both SEQ ID. NO. 66 and SEQ ID. NO. […] NO. 66 and specifically SEQ ID. NO. […]

Row | Molecule | Interaction (binding) with PCSK9 by co-immunoprecipitation (PCSK9-V5) | Interaction (binding) with PCSK9 by co-immunoprecipitation (PCSK9-V5; listed as AA1) | Interaction (binding) with PCSK9 by co-immunoprecipitation (PCSK9-V5; listed as AA2) | Block of LDLR degradation induced by overexpression of PCSK9 [1]
1 | SEQ ID. NO. 64: alanine-scanning mutant of GRP94-ΔKDEL, CBD region YAASAAAAAIMKAQAYQTGKDISTNYY (SEQ ID. NO. 78) (protein, listed as Homo Sapiens) MRALWVLGLCCVLLTFGSVRADDEVDVDGTVEEDLGKSREGSRTDDEVVQREEEAIQLDGLNASQIRELREKSEKFAFQAEVNRMMKLIINSLYKNKEIFLRELISNASDALDKIRLISLTDENALSGNEELTVKIKCDKEKNLLHVTDTGVGMTREELVKNLGTIAKSGTSEFLNKMTEAQEDGQSTSELIGQFGVGFYSAFLVADKVIVTSKHNNDTQHIWESDSNEFSVIADPRGNTLGRGTTITLVLKEEASDYLELDTIKNLVKKYSQFINFPIYVWSSKTETVEEPMEEEEAAKEEKEESDDEAAVEEEEEEKKPKTKKVEKTVWDWELMNDIKPIWQRPSKEVEEDEYKAFYKSFSKESDDPMAYIHFTAEGEVTFKSILFVPTSAPRGLFDEYGSKKSDYIKLYVRRVFITDDFHDMMPKYLNFVKGVVDSDDLPLNVSRETLQQHKLLKVIRKKLVRKTLDMIKKIADDKYNDTFWKEFGTNIKLGVIEDHSNRTRLAKLLRFQSSHHPTDITSLDQYVERMKEKQDKIYFMAGSSRKEAESSPFVERLLKKGYEVIYLTEPVDEYCIQALPEFDGKRFQNVAKEGVKFDESEKTKESREAVEKEFEPLLNWMKDKALKDKIEKAVVSQRLTESPCALVASQYAASAAAAAIMKAQAYQTGKDISTNYYASQKKTFEINPRHPLIRDMLRRIKEDEDDKTVLDLAVVLFETATLRSGYLLPDTKAYGDRIERMLRLSLNIDPDAKVEEEPEEEPEETAEDTTEDTEQDEDEEMDVGTDEEEETAKESTAEYPYDVPDYA | abrogate binding to PCSK9 | abolished PCSK9 binding |  | 
2 | SEQ ID. NO. 7: polypeptide of the invention; in b217 apparently the truncated CBD-CT form of GRP94 (protein) MRALWVLGLCCVLLTFGSVRAYGWSGNMERIMKAQAYQTGKDISTNYYASQKKTFEINPRHPLIRDMLRRIKEDEDDKTVLDLAVVLFETATLRSGYLLPDTKAYGDRIERMLRLSLNIDPDAKVEEEPEEEPEETAEDTTEDTEQDEDEEMDVGTDEEEETAKESTAE | significantly enhanced |  |  | 
3 | SEQ ID. NO. 65: alanine-scanning mutant of GRP94-ΔKDEL, CBD region YGWSGNMERIMKAQAYATGKAISTNAA (SEQ ID. NO. 79) (protein, listed as Homo Sapiens) MRALWVLGLCCVLLTFGSVRADDEVDVDGTVEEDLGKSREGSRTDDEVVQREEEAIQLDGLNASQIRELREKSEKFAFQAEVNRMMKLIINSLYKNKEIFLRELISNASDALDKIRLISLTDENALSGNEELTVKIKCDKEKNLLHVTDTGVGMTREELVKNLGTIAKSGTSEFLNKMTEAQEDGQSTSELIGQFGVGFYSAFLVADKVIVTSKHNNDTQHIWESDSNEFSVIADPRGNTLGRGTTITLVLKEEASDYLELDTIKNLVKKYSQFINFPIYVWSSKTETVEEPMEEEEAAKEEKEESDDEAAVEEEEEEKKPKTKKVEKTVWDWELMNDIKPIWQRPSKEVEEDEYKAFYKSFSKESDDPMAYIHFTAEGEVTFKSILFVPTSAPRGLFDEYGSKKSDYIKLYVRRVFITDDFHDMMPKYLNFVKGVVDSDDLPLNVSRETLQQHKLLKVIRKKLVRKTLDMIKKIADDKYNDTFWKEFGTNIKLGVIEDHSNRTRLAKLLRFQSSHHPTDITSLDQYVERMKEKQDKIYFMAGSSRKEAESSPFVERLLKKGYEVIYLTEPVDEYCIQALPEFDGKRFQNVAKEGVKFDESEKTKESREAVEKEFEPLLNWMKDKALKDKIEKAVVSQRLTESPCALVASQYGWSGNMERIMKAQAYATGKAISTNAAASQKKTFEINPRHPLIRDMLRRIKEDEDDKTVLDLAVVLFETATLRSGYLLPDTKAYGDRIERMLRLSLNIDPDAKVEEEPEEEPEETAEDTTEDTEQDEDEEMDVGTDEEEETAKESTAEYPYDVPDYA | abrogate binding to PCSK9 |  | abolished PCSK9 binding | 
4 | SEQ ID. NO. 46: secretable HA-tagged GRP94 signal polypeptide, client-binding domain and C-terminal domain lacking KDEL (CBD-CT) (protein) MRALWVLGLCCVLLTFGSVRAYGWSGNMERIMKAQAYQTGKDISTNYYASQKKTFEINPRHPLIRDMLRRIKEDEDDKTVLDLAVVLFETATLRSGYLLPDTKAYGDRIERMLRLSLNIDPDAKVEEEPEEEPEETAEDTTEDTEQDEDEEMDVGTDEEEETAKESTAEYPYDVPDYA |  |  |  | significantly block
